Results: PMC7939390 (The Journal of Biological Chemistry, 2020)

Experiments:
[1] = test system: PBP1b^R141A/R397A; assay type: biochemical, Escherichia coli; conditions: dansyl-lipid II, continuous fluorescence assay; means ± S.D. of three experiments
Description: The error bars represent the values as means ± S.D. of three experiments.
(§3) The GTase activity assays with dansyl-lipid II as substrate were performed in a medium binding black 96-well microplate (Greiner Bio One) as described ([57]). The samples contained 10 μM dansyl-lipid II, 50 mM HEPES-NaOH, pH 7.5, 200 mM NaCl, 10 mM CaCl2, 0.085% of decyl-PEG, 20% of DMSO, and 1 unit of N-acetylmuramidase of Streptomyces globisporus (Sigma). […] The reactions were initiated by the addition of 30 nM PBP1bγ (100 nM for PBP1a) and monitored by following the fluorescence decrease over 20 min at 30 °C using an Infinite 200 PRO microplate reader (Tecan, Männedorf, Switzerland) with excitation wavelength at 340 nm and emission at 520 nm.
activity of the PBP1bWT and PBP1bR141A-R397A was monitored in the presence or the absence of LpoB by
continuous fluorescence assay using dansyl-lipid II (LII) as substrate. The error bars represent the values

[2] = test system: E. coli EJ801 (ΔponB-ponA^ts); experiment: complementation assay of E. coli EJ801 (ΔponB-ponA^ts); assay type: cell-based, Escherichia coli; conditions: 42 °C, 4 h, plasmids carrying ponB or mutants, LB 10 g/liter or low salt 0.5 g/liter comparable
Description: To test the activity of the PBP1b mutants in vivo, we tested their ability to complement E. coli strain EJ801, which lacks PBP1b and has a thermosensitive PBP1a ([33]). EJ801 cells were transformed with the corresponding plasmids and grown in LB at 30 °C with 50 µg/ml kanamycin. The preculture was then diluted in 30 ml of fresh LB ([…] NaCl) or LB with […] NaCl medium to an A600nm value of 0.04 and grown at 30 °C until A600nm = 0.1–0.3, and the absorbance of the culture was monitored for 4 h at 42 °C.

[3] = test system: E. coli EJ801 (ΔponB-ponA^ts); experiment: microscopy of EJ801 cells, cell morphology and length; assay type: cell-based, Escherichia coli; parameters: cell length L: unit not given here
Description: Samples were taken from the complementation cultures (42 °C) at different time (1-h intervals), and the cells were fixed as described ([63]). Photographs were taken with a cooled AxioCam MRm (Zeiss) mounted on a Zeiss Axio Imager. Z1 microscope, and the images were acquired in phase-contrast mode using the AxioVision Rel. 4.5 (Zeiss) software. The cell morphologies analysis were determined using ImageJ software (RRID:SCR_003070) running under plugin ObjectJ (RRID:SCR_019190).

[4] = thermal stability of PBP1b^R141A-R397A at 42 °C: Bocillin binding; conditions: 1 h at 42 °C versus 30 °C, 7 µg protein, Bocillin FL 50 µM 30 min, SDS-PAGE (Fig. S1B)
Description: (§1) Figure S1. Stability of the double mutant PBP1bR141A-R397A at 42°C. (A) The purified protein was incubated at 30°C or 42°C for 1 h and its GTase activity was monitored at the same temperature by continuous fluorescence assay using dansyl -lipid II (LII) as substrate. The error bars represent the values as mean ± s.d. of three experiments. (B) after 1h at 30°C or 42°C the protein ( 7 µg) was labelled with Bocillin FL (50 µM) for 30 min at the same temperature and analyzed by SDS-PAGE followed by fluorescence imaging (right) and Coomassie blue staining (left). 1bWT and 1bRR depict PBP1b wild-type and PBP1b double mutant R141A-R397A, respectively. M, Molecular mass marker. […]

[5] = thermal stability of PBP1b^R141A-R397A at 42 °C: GTase activity; assay type: biochemical; conditions: 1 h at 42 °C versus 30 °C, dansyl-lipid II, mean ± s.d. of three experiments (Fig. S1A)
Description: as §1

[6] = test system: TPase domain of PBP1b; conditions: 2.0 mM S2d, 1.2 μM PBP1b, FtsN 2 μM, 50 mM phosphate pH 7.0, 37 °C, 3.2 mM 4,4′-dithiodipyridine, absorbance 330 nm; representative of three independent experiments
Description: The activity of the TPase domain of PBP1b was measured in the presence of S2d (analog of the peptide moiety) as a mimic of donor substrates as previously described ([58], [59]). The assay was performed in a UV-Star 96-well microplate (Greiner Bio One) at 37 °C in the presence of 50 mM phosphate buffer, pH 7.0, 2.0 mM S2d, 3.2 mM 4,4′-dithiodipyridine, and 1.2 μM PBP1b. The absorbance at 330 nm was monitored with an Infinite M200 Pro microplate reader (Tecan, Männedorf, Switzerland). FtsN was used at 2 μM to test its effect on the PBP1b activity.

[7] = molecular target: T1, PBP1b (Escherichia coli, UniProt P02919); conditions: peptide versus full-length FtsN protein; 10 μM dansyl-lipid II, 30 nM PBP1bγ, pH 7.5, 30 °C
T1 sequence (P02919 1-799 isoform P02919-2): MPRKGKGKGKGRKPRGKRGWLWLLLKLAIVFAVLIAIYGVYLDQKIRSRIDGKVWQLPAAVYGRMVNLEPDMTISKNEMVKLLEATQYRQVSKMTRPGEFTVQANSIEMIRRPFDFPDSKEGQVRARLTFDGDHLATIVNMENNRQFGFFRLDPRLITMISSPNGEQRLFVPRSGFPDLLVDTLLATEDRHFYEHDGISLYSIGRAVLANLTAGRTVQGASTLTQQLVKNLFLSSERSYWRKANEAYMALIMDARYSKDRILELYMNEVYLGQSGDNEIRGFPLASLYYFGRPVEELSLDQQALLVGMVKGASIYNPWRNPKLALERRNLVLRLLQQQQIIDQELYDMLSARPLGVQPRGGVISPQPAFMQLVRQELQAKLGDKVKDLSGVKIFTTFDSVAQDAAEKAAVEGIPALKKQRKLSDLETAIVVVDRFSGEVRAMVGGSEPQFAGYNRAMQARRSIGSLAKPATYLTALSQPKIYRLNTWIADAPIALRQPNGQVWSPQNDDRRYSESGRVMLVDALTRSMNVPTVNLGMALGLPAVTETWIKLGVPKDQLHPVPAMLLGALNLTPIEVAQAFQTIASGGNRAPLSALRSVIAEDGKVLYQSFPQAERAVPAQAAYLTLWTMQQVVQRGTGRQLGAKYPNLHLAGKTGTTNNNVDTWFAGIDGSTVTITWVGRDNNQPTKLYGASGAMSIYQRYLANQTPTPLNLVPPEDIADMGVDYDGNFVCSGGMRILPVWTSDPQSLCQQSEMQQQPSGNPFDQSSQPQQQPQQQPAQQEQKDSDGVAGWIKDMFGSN
Description: as §3

[8] = test system: FtsBLQ; conditions: cited from earlier work
Source text: In contrast, no significant change in the FA sig ...

[9] = test system: PBP3; conditions: cited from earlier work
Source text: (§2) Bacteria generally have at least one bifunctional (GTase/TPase) PBP of class A and one monofunctional (TPase only) PBP of class B ([2], [13]). E. coli contains three aPBPs: PBP1a, 1b, and 1c, and two bPBPs: PBP2 and PBP3, the latter being involved in cell elongation and division, respectively ([14]). PBP1a and PBP1b are major PG synthases and at least one of them is required for cell viability ([15]).

[10] = test system: E. coli; conditions: residue change W83L; cited from earlier work
[11] = molecular target: T1, PBP1b; conditions: compared with the WT protein; cited from earlier work
Source text: The stimulation of PBP1b in vitro by FtsN is well-established ([5], [28]).

[12] = molecular target: T1, PBP1b; conditions: cited from earlier work
Source text: as §2

B1: PBP1b^R141A/R397A (protein)
chain: MAGNDREPIGRKGKPTRPVKQKVSRRRYEDDDDYDDYDDYEDEEPMPRKGKGKGKGRKPRGKRGWLWLLLKLAIVFAVLIAIYGVYLDQKIRSRIDGKVWQLPAAVYGRMVNLEPDMTISKNEMVKLLEATQYRQVSKMTAPGEFTVQANSIEMIRRPFDFPDSKEGQVRARLTFDGDHLATIVNMENNRQFGFFRLDPRLITMISSPNGEQRLFVPRSGFPDLLVDTLLATEDRHFYEHDGISLYSIGRAVLANLTAGRTVQGASTLTQQLVKNLFLSSERSYWRKANEAYMALIMDARYSKDRILELYMNEVYLGQSGDNEIRGFPLASLYYFGRPVEELSLDQQALLVGMVKGASIYNPWRNPKLALERRNLVLRLLQQQQIIDQELYDMLSAAPLGVQPRGGVISPQPAFMQLVRQELQAKLGDKVKDLSGVKIFTTFDSVAQDAAEKAAVEGIPALKKQRKLSDLETAIVVVDRFSGEVRAMVGGSEPQFAGYNRAMQARRSIGSLAKPATYLTALSQPKIYRLNTWIADAPIALRQPNGQVWSPQNDDRRYSESGRVMLVDALTRSMNVPTVNLGMALGLPAVTETWIKLGVPKDQLHPVPAMLLGALNLTPIEVAQAFQTIASGGNRAPLSALRSVIAEDGKVLYQSFPQAERAVPAQAAYLTLWTMQQVVQRGTGRQLGAKYPNLHLAGKTGTTNNNVDTWFAGIDGSTVTITWVGRDNNQPTKLYGASGAMSIYQRYLANQTPTPLNLVPPEDIADMGVDYDGNFVCSGGMRILPVWTSDPQSLCQQSEMQQQPSGNPFDQSSQPQQQPQQQPAQQEQKDSDGVAGWIKDMFGSN
Q: For B1, which “GTase activity of mutant compared with WT protein” value [1] is on record?
A: minor or no difference in the GTase activity compared with the WT protein

Q: What about the “restoration of growth of EJ801 at the nonpermissive temperature” value [2] of the same molecule?
A: unable to rescue E. coli EJ801 at 42 °C

Q: What about the “cell length L” value ([3]; EJ801 after 1 h at 42 °C, n = 250, phase contrast, ImageJ/ObjectJ) of the same molecule?
A: 6.14 ± 1.84

Q: And the cell phenotype ([3]; EJ801 at 42 °C (double mutant: after 1 h))?
A: mild elongated phenotype

Q: And the “Bocillin-binding activity after incubation at 42 °C” value [4]?
A: not affected

Q: And the “GTase activity after incubation at 42 °C” value [5]?
A: not affected

B2: FtsN: full-length E. coli cell division protein FtsN (protein)
chain: MAQRDYVRRSQPAPSRRKKSTSRKKQRNLPAVSPAMVAIAAAVLVTFIGGLYFITHHKKEESETLQSQKVTGNGLPPKPEERWRYIKELESRQPGVRAPTEPSAGGEVKTPEQLTPEQRQLLEQMQADMRQQPTQLVEVPWNEQTPEQRQQTLQRQRQAQQLAEQQRLAQQSRTTEQSWQQQTRTSQAAPVQAQPRQSKPASSQQPYQDLLQTPAHTTAQSKPQQAAPVARAADAPKPTAEKKDERRWMVQCGSFRGAEQAETVRAQLAFEGFDSKITTNNGWNRVVIGPVKGKENADSTLNRLKMAGHTNCIRLAAGG
modifications: left off: His, end not stated, kept
Q: For B2, which “effect on TPase activity of PBP1b (S2d hydrolysis)” value [6] is on record?
A: no effect

Q: And the “concentration required for stimulation of the GTase activity of PBP1b” value [7]?
A: ~1000 nM

Q: And the “interaction with FtsBLQ (literature)” value [8]?
A: absence of strong interaction

Q: What about the “effect on the activity of PBP3 (literature)” value [9] of the same molecule?
A: no effect on the activity of PBP3

B3: FtsN^W83L (protein, UniProt P29131 1-319, looked up, variant W83L)
Cell division protein FtsN: MAQRDYVRRSQPAPSRRKKSTSRKKQRNLPAVSPAMVAIAAAVLVTFIGGLYFITHHKKEESETLQSQKVTGNGLPPKPEERLRYIKELESRQPGVRAPTEPSAGGEVKTPEQLTPEQRQLLEQMQADMRQQPTQLVEVPWNEQTPEQRQQTLQRQRQAQQLAEQQRLAQQSRTTEQSWQQQTRTSQAAPVQAQPRQSKPASSQQPYQDLLQTPAHTTAQSKPQQAAPVARAADAPKPTAEKKDERRWMVQCGSFRGAEQAETVRAQLAFEGFDSKITTNNGWNRVVIGPVKGKENADSTLNRLKMAGHTNCIRLAAGG
Q: For B3, which “FtsN activity in vivo (literature)” value [10] is on record?
A: impairs FtsN activity in vivo

Q: And the “interaction with PBP1b (literature)” value [11]?
A: reduced compared with the WT protein

Q: And the “stimulation of PBP1b activity in vitro (literature)” value [12]?
A: less able to stimulate PBP1b activity

Q: And the “suppression of FtsBLQ-mediated inhibition of PBP1b GTase activity (literature)” value [12]?
A: less able to stimulate PBP1b activity and to suppress FtsBLQ-mediated inhibition of PBP1b GTase activity in vitro
